B1: antibody PSf42.3 (antibody, V domains shown)
VH: EVQLQQSGAELAKPGASVKLSCTGSGFNIKDTYMHWVKQRPEQGLEWIGGIDPETGNTKFDPRFQDKATITSDTSSNTVLLQLSSLTSEDTAVYYCANLGRPFAHWGQGTTVTVS
VL: HSADPVSISCKSSQSLLHRDGKTYLNWVFQRPGQSPQRLIYLVSLVDSGVPDRFTGSGSGTDFTLKINRVEAEDLGVYYCWQGTHFPRTFGGGTKLEIKR
B2: antibody PSf34.1 (antibody, V domains shown)
VH: EVQLEESGAELVKPGASVKLSCTASGFYIKDTYIHWVKQRPEEVLEWIGGIDPADGDTRYDPKFQGKATITADTSSNSAYLHLTSLTSEDTAVYFCARELAYWGAGTTVTVS
VL: not shown
notes: also called mAb PSf34.1
B3: antibody PSf42.4 (antibody, V domains shown)
VH: EVKLQQSGAELVKPGASVKLSCTASGFSIRDTYMHWVRQRPEQGLEWITGIDPENGNSKYAPRFQDKATIIADTSSNTVHLQLDTLTSEDTAVYYCTRELAYWGQGTTVTVS
VL: DILMTQSPLTLSVIIGQPASFSCKSSHSLLHRDGRTYLNWLLQRPGQSPQRLIYLVSKLDSGVPDRFTGSGSGTDFTLKISRVEAEDLGVYYCWQGTHFPRTFGGGTKLEIKR
B4: antibody PSf42.1 (antibody, V domains shown)
VH: EVQLEESGAEFVRPGAAVKLSCTVSGLNIKDSYLHWVKQRPEQGLEWIGGIDPANGDVEYDPKFQGKAAITADTSSNTAYLRLSSLTSEDTAVYYCAPFPYWGAGTTVTVS
VL: B3 VL
B5: antibody PSf47.1 (antibody, V domains shown)
VH: EVKLQESGPDLVKPGASVKVSCKASGYTFTVYVIHWVIQKPGQGLEWIGYINPYNDGAEYNENFKGKATLTSDKSSSTAYMELSSLTSEDSAVYYCTRGENYYTSRYGFFDVWGQGTTVTVS
VL: DILMPQSPSSLAVSAGEKVTMSCKSSQSLLNSRTRKNYLAWYQQKLGQSPKLLIYWASTRESGVPDRFTGSGSGTDFTLTISSVQAEDLAVYYCKQSYNFITFGAGTKLELKR
notes: also called mAb PSf47.1

T1 sequence (Q04609 whole entry): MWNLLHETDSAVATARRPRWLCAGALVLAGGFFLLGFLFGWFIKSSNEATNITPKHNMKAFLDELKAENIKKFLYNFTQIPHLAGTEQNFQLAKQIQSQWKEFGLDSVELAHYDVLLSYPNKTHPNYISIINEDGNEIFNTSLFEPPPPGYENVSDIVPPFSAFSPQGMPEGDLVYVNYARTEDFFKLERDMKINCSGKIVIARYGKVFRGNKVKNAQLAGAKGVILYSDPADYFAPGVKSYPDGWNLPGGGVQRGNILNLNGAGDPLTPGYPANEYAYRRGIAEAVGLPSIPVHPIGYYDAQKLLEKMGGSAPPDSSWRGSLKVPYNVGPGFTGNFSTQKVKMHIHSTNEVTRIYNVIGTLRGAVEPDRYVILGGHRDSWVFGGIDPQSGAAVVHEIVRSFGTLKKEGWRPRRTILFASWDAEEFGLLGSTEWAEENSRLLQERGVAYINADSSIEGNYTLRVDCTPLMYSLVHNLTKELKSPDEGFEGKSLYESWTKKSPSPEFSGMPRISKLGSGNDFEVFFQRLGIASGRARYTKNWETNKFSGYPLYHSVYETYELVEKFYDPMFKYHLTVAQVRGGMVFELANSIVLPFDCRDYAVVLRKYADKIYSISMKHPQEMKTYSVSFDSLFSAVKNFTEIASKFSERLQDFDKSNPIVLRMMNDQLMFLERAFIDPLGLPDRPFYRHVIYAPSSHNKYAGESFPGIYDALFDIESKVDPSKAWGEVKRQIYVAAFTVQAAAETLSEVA

The assay concerns the target T1, prostate specific membrane antigen (PSMA) on LNCaP cells (human, UniProt Q04609 1-750).
T1 construct: also called PSMA-expressing cells
Description: saturation binding on whole LNCaP cells, detected with 125I goat anti-mouse IgG.
Description: Antibody binding assay: Saturation binding studies were performed on whole cells with purified anti-PSMA MAb followed by detection of cellbound MAb using ¹²⁵I-labeled goat anti-mouse IgG. Briefly, nearly confluent LNCaP cells were rinsed with ice-cold PBS and scraped in PBS containing the protease inhibitor cocktail described above. Cells (7.5×10⁶ per tube) were incubated with 100 μL of antibody diluted in complete RPMI to various concentrations for 1 h at room temperature. […] Following removal of unbound secondary antibody by centrifugation, the radioactivity associated with the cell pellet was determined using a gamma counter. Non-specific binding was determined in the presence of a 100-fold molar excess of the antibody antigen PSMA₄₉₀₋₅₀₀. […] For these experiments, a parallel sample in which the primary MAb was replaced by diluent served as a control for background binding of the secondary antibody and was less than 0.5%. Counts were analyzed by non-linear regression of total binding (Y) according to the law of mass action using the formula Y=Bmax*X/(Kd+X), where Bmax, Kd, and X represent the maximal binding, the concentration of ligand at half maximal binding, and the concentration of primary antibody, respectively. The ¹²⁵I-labeled goat anti-mouse IgG used in these experiments was radio-iodinated using the chloramine T method. Briefly, 10 μg of goat anti-mouse IgG whole molecule was incubated with 300 pmol of chloramine T and 90 μCi of [¹²⁵I] sodium iodide in a final volume of 25 μL containing 0.5 M sodium phosphate (pH 7.5) for 20 min at room temperature before quenching the reaction with 100 μL of sodium metabisulfite at 2.6 mg/mL in 0.5 M sodium phosphate buffer (pH 7.5). The labeled antibody was purified from free iodide by gel filtration on Sephadex G25. The amount of free iodide contaminating the labeled antibody was evaluated by ITLC-SG and never exceeded 1%.
Molecule B1 gave a Bmax of 4.9 pmol/mg and a Kd of 20.4 nM. Molecule B2 had a Bmax of 4.8 pmol/mg. B3 registered a Bmax of 5.1 pmol/mg and a Kd of 34.1 nM. The like results for B4 were, in that order, 2.8 pmol/mg and 14.7 nM. In turn, B5 returned a Bmax of 4.6 pmol/mg.

The values are drawn from patent US20110189093A1 (PROSCAN RX PHARMA, published 2011).
